B1: F1*; the commonest letter at each place (parent)
chain: GAGACCGCAACTGAAAAGTTGTTATCACTTGTCGTAAGACACTTTGGATGGGTTGAAGTTCTGCACGTAGAAGCAAAAGGC

Variants of: B1
Experiment: fraction ligated after 30 min (ligated reads / total reads); higher = more ligase activity
Conditions: with F1*sub RNA substrate (template-directed ligation), 42 °C
Outline: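 Ribozyme variants were transcribed with T7 from PCR-amplified oligo-pool templates and gel-purified. Ligated and unligated bands, separated on gel, were reverse transcribed with barcoded primers and sequenced on a MiSeq, with core bases filtered at quality ≥20. Fraction ligated per variant was computed as ligated reads divided by total reads.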

Variant	fraction ligated
GAGACCGCAACTGAAAAGTTGTTATCACTTGTCGTAAGACCCCTTGGATGGGTTGAAGTTCTGCACGTAGAAGCAAAAGGC	0.766
GAGACCGCAACTGAAAAGTTGTTATCACTTGTCGTAAGACCCATTGGATGGGTTGAAGTTCTGCACGTAGAAGCAAAAGGC	0.781
GAGACCGCAACTGAAAAGTTGTTATCACTTGTCGTAAGACCCGTTGGATGGGTTGAAGTTCTGCACGTAGAAGCAAAAGGC	0.76
GAGACCGCAACTGAAAAGTTGTTATCACTTGTCGTAAGACGCTTTGGATGGGTTGATGTTCTGCACGTAGAAGCAAAAGGC	0.76
GAGACCGCAACTGAAAAGTTGTTATCACTTGTCGTAAGACGCTTTGGATGGGTTGAGGTTCTGCACGTAGAAGCAAAAGGC	0.787
GAGACCGCAACTGAAAAGTTGTTATCACTTGTCGTAAGACGCTTTGGATGGGTTGACGTTCTGCACGTAGAAGCAAAAGGC	0.735
GAGACCGCAACTGAAAAGTTGTTATCACTTGTCGTAAGACCCTTTGGATGGGTTGTAGTTCTGCACGTAGAAGCAAAAGGC	0.615
GAGACCGCAACTGAAAAGTTGTTATCACTTGTCGTAAGACCCTTTGGATGGGTTGGAGTTCTGCACGTAGAAGCAAAAGGC	0.561
GAGACCGCAACTGAAAAGTTGTTATCACTTGTCGTAAGACCCTTTGGATGGGTTGCAGTTCTGCACGTAGAAGCAAAAGGC	0.503
GAGACCGCAACTGAAAAGTTGTTATCACTTGTCGTAAGACGTTTTGGATGGGTTGAAGTTCTGCACGTAGAAGCAAAAGGC	0.83
GAGACCGCAACTGAAAAGTTGTTATCACTTGTCGTAAGACGATTTGGATGGGTTGAAGTTCTGCACGTAGAAGCAAAAGGC	0.85
GAGACCGCAACTGAAAAGTTGTTATCACTTGTCGTAAGACGGTTTGGATGGGTTGAAGTTCTGCACGTAGAAGCAAAAGGC	0.803
GAGACCGCAACTGAAAAGTTGTTATCACTTGTCGTAAGACCCTTTGGATGGGTTGATGTTCTGCACGTAGAAGCAAAAGGC	0.785
GAGACCGCAACTGAAAAGTTGTTATCACTTGTCGTAAGACCCTTTGGATGGGTTGACGTTCTGCACGTAGAAGCAAAAGGC	0.767
GAGACCGCAACTGAAAAGTTGTTATCACTTGTCGTAAGACCCTTTGGATGGGTTGAGGTTCTGCACGTAGAAGCAAAAGGC	0.773
GAGACCGCAACTGAAAAGTTGTTATCACTTGTCGTAAGACGCCTTGGATGGGTTGAAGTTCTGCACGTAGAAGCAAAAGGC	0.744
GAGACCGCAACTGAAAAGTTGTTATCACTTGTCGTAAGACGCGTTGGATGGGTTGAAGTTCTGCACGTAGAAGCAAAAGGC	0.807
GAGACCGCAACTGAAAAGTTGTTATCACTTGTCGTAAGACGCATTGGATGGGTTGAAGTTCTGCACGTAGAAGCAAAAGGC	0.817
GAGACCGCAACTGAAAAGTTGTTATCACTTGTCGTAAGACCCTTTGGATCGGTTGAAGTTCTGCACGTAGAAGCAAAAGGC	0.168
GAGACCGCAACTGAAAAGTTGTTATCACTTGTCGTAAGACCCTTTGGATAGGTTGAAGTTCTGCACGTAGAAGCAAAAGGC	0.28
GAGACCGCAACTGAAAAGTTGTTATCACTTGTCGTAAGACCCTTTGGATTGGTTGAAGTTCTGCACGTAGAAGCAAAAGGC	0.597
GAGACCGCAACTGAAAAGTTGTTATCACTTGTCGTAAGACGCTTTGGATGGGTTGTAGTTCTGCACGTAGAAGCAAAAGGC	0.756
GAGACCGCAACTGAAAAGTTGTTATCACTTGTCGTAAGACGCTTTGGATGGGTTGCAGTTCTGCACGTAGAAGCAAAAGGC	0.755

Variant	fraction ligated
GAGACCGCAACTGAAAAGTTGTTATCACTTGTCGTAAGACGCTTTGGATGGGTTGGAGTTCTGCACGTAGAAGCAAAAGGC	0.764
GAGACCGCAACTGAAAAGTTGTTATCACTTGTCGTAAGACCATTTGGATGGGTTGAAGTTCTGCACGTAGAAGCAAAAGGC	0.844
GAGACCGCAACTGAAAAGTTGTTATCACTTGTCGTAAGACCTTTTGGATGGGTTGAAGTTCTGCACGTAGAAGCAAAAGGC	0.812
GAGACCGCAACTGAAAAGTTGTTATCACTTGTCGTAAGACCGTTTGGATGGGTTGAAGTTCTGCACGTAGAAGCAAAAGGC	0.826
GAGACCGCAACTGAAAAGTTGTTATCACTTGTCGTAAGACCCTTCGGATGGGTTGAAGTTCTGCACGTAGAAGCAAAAGGC	0.328
GAGACCGCAACTGAAAAGTTGTTATCACTTGTCGTAAGACCCTTAGGATGGGTTGAAGTTCTGCACGTAGAAGCAAAAGGC	0.55
GAGACCGCAACTGAAAAGTTGTTATCACTTGTCGTAAGACCCTTGGGATGGGTTGAAGTTCTGCACGTAGAAGCAAAAGGC	0.0888
GAGACCGCAACTGAAAAGTTGTTATCACTTGTCGTAAGACGCTATGGATGGGTTGAAGTTCTGCACGTAGAAGCAAAAGGC	0.796
GAGACCGCAACTGAAAAGTTGTTATCACTTGTCGTAAGACCCTTTGGACGGGTTGAAGTTCTGCACGTAGAAGCAAAAGGC	0.17
GAGACCGCAACTGAAAAGTTGTTATCACTTGTCGTAAGACCCTTTGGAGGGGTTGAAGTTCTGCACGTAGAAGCAAAAGGC	0.209
GAGACCGCAACTGAAAAGTTGTTATCACTTGTCGTAAGACCCTTTGGAAGGGTTGAAGTTCTGCACGTAGAAGCAAAAGGC	0.178
GAGACCGCAACTGAAAAGTTGTTATCACTTGTCGTAAGACCCTTTGGATGGGTTAAAGTTCTGCACGTAGAAGCAAAAGGC	0.804
GAGACCGCAACTGAAAAGTTGTTATCACTTGTCGTAAGACCCTTTGGATGGGTTTAAGTTCTGCACGTAGAAGCAAAAGGC	0.751
GAGACCGCAACTGAAAAGTTGTTATCACTTGTCGTAAGACCCTTTGGATGGGTTCAAGTTCTGCACGTAGAAGCAAAAGGC	0.329
GAGACCGCAACTGAAAAGTTGTTATCACTTGTCGTAAGACCCTTTGCATGGGTTGAAGTTCTGCACGTAGAAGCAAAAGGC	0.177
GAGACCGCAACTGAAAAGTTGTTATCACTTGTCGTAAGACCCTTTGAATGGGTTGAAGTTCTGCACGTAGAAGCAAAAGGC	0.228
GAGACCGCAACTGAAAAGTTGTTATCACTTGTCGTAAGACCCTTTGTATGGGTTGAAGTTCTGCACGTAGAAGCAAAAGGC	0.157
GAGACCGCAACTGAAAAGTTGTTATCACTTGTCGTAAGACCCTTTCGATGGGTTGAAGTTCTGCACGTAGAAGCAAAAGGC	0.639
GAGACCGCAACTGAAAAGTTGTTATCACTTGTCGTAAGACCCTTTAGATGGGTTGAAGTTCTGCACGTAGAAGCAAAAGGC	0.764
GAGACCGCAACTGAAAAGTTGTTATCACTTGTCGTAAGACCCTTTTGATGGGTTGAAGTTCTGCACGTAGAAGCAAAAGGC	0.676
GAGACCGCAACTGAAAAGTTGTTATCACTTGTCGTAAGACGCTTTCGATGGGTTGAAGTTCTGCACGTAGAAGCAAAAGGC	0.768
GAGACCGCAACTGAAAAGTTGTTATCACTTGTCGTAAGACGCTTTAGATGGGTTGAAGTTCTGCACGTAGAAGCAAAAGGC	0.791
GAGACCGCAACTGAAAAGTTGTTATCACTTGTCGTAAGACGCTTTTGATGGGTTGAAGTTCTGCACGTAGAAGCAAAAGGC	0.767

Variant	fraction ligated
GAGACCGCAACTGAAAAGTTGTTATCACTTGTCGTAAGACGCTTTGTATGGGTTGAAGTTCTGCACGTAGAAGCAAAAGGC	0.354
GAGACCGCAACTGAAAAGTTGTTATCACTTGTCGTAAGACGCTTTGAATGGGTTGAAGTTCTGCACGTAGAAGCAAAAGGC	0.734
GAGACCGCAACTGAAAAGTTGTTATCACTTGTCGTAAGACGCTTTGCATGGGTTGAAGTTCTGCACGTAGAAGCAAAAGGC	0.178
GAGACCGCAACTGAAAAGTTGTTATCACTTGTCGTAAGACGCTTTGGATCGGTTGAAGTTCTGCACGTAGAAGCAAAAGGC	0.119
GAGACCGCAACTGAAAAGTTGTTATCACTTGTCGTAAGACGCTTTGGATAGGTTGAAGTTCTGCACGTAGAAGCAAAAGGC	0.23
GAGACCGCAACTGAAAAGTTGTTATCACTTGTCGTAAGACGCTTTGGATTGGTTGAAGTTCTGCACGTAGAAGCAAAAGGC	0.609
GAGACCGCAACTGAAAAGTTGTTATCACTTGTCGTAAGACCCTTTGGGTGGGTTGAAGTTCTGCACGTAGAAGCAAAAGGC	0.783
GAGACCGCAACTGAAAAGTTGTTATCACTTGTCGTAAGACCCTTTGGCTGGGTTGAAGTTCTGCACGTAGAAGCAAAAGGC	0.571
GAGACCGCAACTGAAAAGTTGTTATCACTTGTCGTAAGACCCTTTGGTTGGGTTGAAGTTCTGCACGTAGAAGCAAAAGGC	0.736
GAGACCGCAACTGAAAAGTTGTTATCACTTGTCGTAAGACGCTTTGGTTGGGTTGAAGTTCTGCACGTAGAAGCAAAAGGC	0.625
GAGACCGCAACTGAAAAGTTGTTATCACTTGTCGTAAGACGCTTTGGGTGGGTTGAAGTTCTGCACGTAGAAGCAAAAGGC	0.76
GAGACCGCAACTGAAAAGTTGTTATCACTTGTCGTAAGACGCTTTGGCTGGGTTGAAGTTCTGCACGTAGAAGCAAAAGGC	0.736
GAGACCGCAACTGAAAAGTTGTTATCACTTGTCGTAAGACGCTTTGGATGGGTTTAAGTTCTGCACGTAGAAGCAAAAGGC	0.754
GAGACCGCAACTGAAAAGTTGTTATCACTTGTCGTAAGACGCTTTGGATGGGTTCAAGTTCTGCACGTAGAAGCAAAAGGC	0.663
GAGACCGCAACTGAAAAGTTGTTATCACTTGTCGTAAGACGCTTTGGATGGGTTAAAGTTCTGCACGTAGAAGCAAAAGGC	0.785
GAGACCGCAACTGAAAAGTTGTTATCACTTGTCGTAAGACCCTTTGGATGGGTTGAAGTTCTGCACGTAGAAGCAAAAGGC	0.775
GAGACCGCAACTGAAAAGTTGTTATCACTTGTCGTAAGACGCTTTGGATGGGTTGAAGTTCTGCACGTAGAAGCAAAAGGC	0.802
GAGACCGCAACTGAAAAGTTGTTATCACTTGTCGTAAGATACTTTGGAGGGGTTGAAGTTCTGCACGTAGAAGCAAAAGGC	0.812
GAGACCGCAACTGAAAAGTTGTTATCACTTGTCGTAAGATACTTTGGACGGGTTGAAGTTCTGCACGTAGAAGCAAAAGGC	0.38
GAGACCGCAACTGAAAAGTTGTTATCACTTGTCGTAAGACCCTGTGGATGGGTTGAAGTTCTGCACGTAGAAGCAAAAGGC	0.797
GAGACCGCAACTGAAAAGTTGTTATCACTTGTCGTAAGACCCTCTGGATGGGTTGAAGTTCTGCACGTAGAAGCAAAAGGC	0.769
GAGACCGCAACTGAAAAGTTGTTATCACTTGTCGTAAGACCCTATGGATGGGTTGAAGTTCTGCACGTAGAAGCAAAAGGC	0.764
